Our source for the Kd values is article PMC3957475 (Biochemical Journal, 2014).

Assay [1] has as its target T1, Biotinylated GAK (cyclin G-associated kinase) (Homo sapiens, biotin (biotinylated; site and way not stated)).
T1 construct: Captured on a CAP chip with the Biotin CAPture kit; the general purification removes the His6 tag
T1 chain: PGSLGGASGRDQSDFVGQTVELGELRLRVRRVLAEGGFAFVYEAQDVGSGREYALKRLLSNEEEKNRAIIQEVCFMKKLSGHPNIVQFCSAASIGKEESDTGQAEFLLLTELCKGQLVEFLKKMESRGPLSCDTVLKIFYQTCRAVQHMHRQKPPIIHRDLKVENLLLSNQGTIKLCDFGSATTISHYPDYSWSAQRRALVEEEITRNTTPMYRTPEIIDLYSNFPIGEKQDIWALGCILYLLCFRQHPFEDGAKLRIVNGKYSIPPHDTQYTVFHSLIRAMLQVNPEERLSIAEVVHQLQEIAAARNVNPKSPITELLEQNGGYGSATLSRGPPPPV
Briefly: SPR; same SPR experiment as the kinetic fit (biotinylated GAK on CAP chip, 25°C, 50 mM Tris/HCl pH 7.4, 150 mM NaCl); steady-state analysis. Conditions: both partners purified. (In general: Surface plasmon resonance follows binding to a sensor surface in real time, without labels.)

In assay [2] the target is T1, Biotinylated GAK (cyclin G-associated …). In words: SPR; Biacore 3000, 25°C, 30 μl/min; biotinylated GAK captured on CAP chip (60-120 RU); nanobodies injected in serial 2-fold dilutions for 3 min; 50 mM Tris/HCl pH 7.4, 150 mM NaCl, 50 μM EDTA, 0.005% Tween 20; kinetic global fit, 1:1 Langmuir model. The conditions noted are these: both partners purified.

Usually Kd stands for the concentration at which binding is half-saturated. Low values mean higher affinity, high ones lower affinity.

B1: NbGAK_4 (VHH)
VHH: QVQLQESGGGSVQAGGSLRLSCGASEYTSRMGWFRQAPGAEREGVACIHRQSNLSYYSDSVRGRFTISQDNAKTTAFLLMSSLKPEDTAIYYCATTTDCAAFVERATAITAGQGTQVTVSS
notes: about 120 amino acids; structures of the complex with GAK deposited here (among PDB 4C57, 4C58, 4C59); From a GAK-immunised dromedary, phage display vector pMECS, which adds an HA and a His tag
As for B1, the results for the Kd in assay [1] and in assay [2] were 0.0128 µM and 0.0103 µM, respectively.

B2: NbGAK_1 (VHH)
VHH: QVQLQESGGGLVQPGGSLRLSCSASGFKFNDSYMSWVRRVPGKGLEWVAGIWEDSSAAHYRDSVKGRFTISRDNAKNMLYLQMSSLKSDDTGLYYCVRRGYSGDYRPINNPSSQGTQVTVSS
notes: about 120 amino acids; structure of the complex with GAK deposited here (one of PDB 4C57, 4C58, 4C59); From a GAK-immunised dromedary, phage display vector pMECS, which adds an HA and a His tag
As for B2, the Kd was found to be 0.0603 µM in assay [1] and 0.0599 µM in assay [2].
